The supplement of paper PMC9170038

Tested on: MS2 coat protein
Test: apparent KD of MS2 coat protein; designed switch direction (-1 OFF switch, 1 ON switch): -1; higher = weaker reporter binding
Outline: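 The apparent KD reported per design is the median over clusters of curve fits to normalised cluster fluorescence. The RNA switches were transcribed on Illumina chips by stalled E. coli RNA polymerase. SNAP-549-labelled MS2 coat protein was titrated from 0.7 or 1.5 nM, doubling up to 3 µM, in Tris-HCl pH 7.5 buffer containing KCl, MgCl2, BSA, DTT, tRNA and Tween-20, with no input, 200 uM small-molecule ligand, or an oligonucleotide input.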

[1] = Eterna round: R95, input ligand: FMN 200 uM
[2] = Eterna round: R95, input ligand: microRNA oligo, concentration not stated
[3] = Eterna round: R95, input ligand: none

Row | Sequence | apparent KD of MS2 coat protein [1] | apparent KD of MS2 coat protein [2] | apparent KD of MS2 coat protein [3] | apparent KD of MS2 coat protein (input ligand: FMN 200 uM) | apparent KD of MS2 coat protein (input ligand: none)
1 | CUGAGCAGACGGAAAUCCAACAUGAGGAUCACCCAUGUCUCAAAAGCUUUUUGCUCGUCUUAUCCUCCUCUGUUCUC [Tiardia] (puzzle: Sensor v3, turn-off variant 1) | 24.1 nM | 138 nM | 21.1 nM |  | 
2 | CUGAGCAGACGGAGAUCCAACAUGAGGAUCACCCAUGUCUCAAAAGCUUUUUGCUCGUCUUAUCCUCCUCUGCUCAC [Geesbeleri] (puzzle: Sensor v3, turn-off variant 1) | 11.2 nM | 21.8 nM | 12.5 nM |  | 
3 | CUGAGCAGACGGAGAUCCAACAUGAGGAUCACCCAUGUCUCAAAAGCUUUUUGCUUAAACGUCUUAUCUCUGUUCAC [Esquitian 5] (Eterna round: R97, puzzle: Sensor, turn-off variant 1) |  |  |  | 35.7 nM | 33.8 nM
4 | CUGAGCAGACGGAGAUCCAACAUGAGGAUCACCCAUGUCUCAAAAGCUUUUUGCUUGUCUUACUCUCCUCUGUUCUC [Atenve] (puzzle: Sensor v3, turn-off variant 1) | 13.9 nM | 103 nM | 11.3 nM |  | 
5 | CUGAGCAGACGGAGAUCCAACAUGAGGAUCACCCAUGUCUCAAAAGCUUUUUGCUUGUCUUAUCCUCCUCUGUUCUC [Xegean] (puzzle: Sensor v3, turn-off variant 1) | 14.6 nM | 248 nM | 12.7 nM |  | 
6 | CUGAGCAGACGGAGAUCCAACAUGAGGAUCACCCAUGUCUCACAAGCUUUUUGCUUGUCUUAUUCUCCUCUGUUCUC [Leveasodi] (puzzle: Sensor v3, turn-off variant 1) | 12.8 nM | 16.6 nM | 12.1 nM |  | 
7 | CUGAGCUGAGGAUAUACAUGAGGAUCACCCAUGUAAAGCAGCUUGCGUACAAGCAGAUGUAGAAGGCAGUUCGG [Mod of JL 17 - Jieux - Exclusion 3] (Eterna round: R97, puzzle: Exclusion 3) |  |  |  | 24.1 nM | 14.7 nM
8 | CUGAGCUGAGGAUAUACAUGAGGAUCACCCAUGUGUUAGAGCUUGCGUACAGGCAGAUGUAGAAGGCAGUUCGG [JL-ex3-3.33 Brourd mod] (puzzle: Exclusion 3) |  | 14.5 nM |  |  | 
9 | CUGAGGUAAGGAUAUAGGAGAGAAGAUAAGGUAUGAGAGUUCUAGAAGGUACAUGAGGAUCACCCAUGUUAGGG [JR_Exclu4_Sub087] (puzzle: Exclusion 4) |  | 252 nM |  |  | 
10 | CUGAGGUAGCGGUCCUAUAACAUGAGGAUCACCCAUGUACCUUGCUUCGAGCUUUUAGCUCGUCUUAUGAUUCUCGG [Mat - Sensor v3 - turn-off var 1 - JL Mod - D37] (puzzle: Sensor v3, turn-off variant 1) | 443 nM | 502 nM | 560 nM |  | 
11 | CUGAGGUAGCGGUCCUAUGACAUGAGGAUCACCCAUGUACCUCGCUACGAGCUUUUUGCUCGUCUUAUAAUUCUCGG [JL Atriat mod 2] (puzzle: Sensor v3, turn-off variant 1) | 573 nM | 141 nM | 643 nM |  | 
12 | CUGAGGUAGCGGUCCUAUGACAUGAGGAUCACCCAUGUACCUUGCUUCGAGCAUUUUGCUCGUCUUAUGAUUCUCGG [Mat - Sensor v3 - turn-off var 1 - JL Mod - D35] (puzzle: Sensor v3, turn-off variant 1) | 450 nM | 481 nM | 507 nM |  | 
13 | CUGAGGUAGCGGUCCUAUGACAUGAGGAUCACCCAUGUACCUUGCUUCGAGCUAUUUGCUCGUCUUAUGAUUCUCGG [Mat - Sensor v3 - turn-off var 1 - JL Mod - D34] (puzzle: Sensor v3, turn-off variant 1) | 538 nM | 483 nM | 493 nM |  | 
